These results are taken from patent US20050221343A1.

Holding throughout (experiment): cell-based or functional assay
The target of experiment [1] is (GFP S10 A10)-L1-NdeI::HPS::BamH1-L2-(GFP S11 SM5) (Pyrobaculum aerophilum).
In experiment [2] the target is (GFP S10 SM5)-L1-sulfite reductase-L2-(GFP S11 SM5) (Pyrobaculum aerophilum).
The target in experiment [3] is (GFP S10)-L1-sulfite reductase-L2-(GFP S11) (Pyrobaculum aerophilum).
Experiment [4] concerns the target sulfite reductase-GFP S10-11 OPT fusion protein (Pyrobaculum aerophilum; Aequorea victoria).

Values joined by “and” are separate entries in the source; they are usually repeats but may differ in a detail not shown here. Identical values can stand only once.

Sequence of (GFP S10 A10)-L1-NdeI::HPS::BamH1-L2-(GFP S11 SM5) (Pyrobaculum aerophilum) (main, as listed by the source): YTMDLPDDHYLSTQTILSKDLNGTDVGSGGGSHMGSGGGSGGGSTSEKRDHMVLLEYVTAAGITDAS
Sequence of (GFP S10 SM5)-L1-sulfite reductase-L2-(GFP S11 SM5) (Pyrobaculum aerophilum) (main, as listed by the source): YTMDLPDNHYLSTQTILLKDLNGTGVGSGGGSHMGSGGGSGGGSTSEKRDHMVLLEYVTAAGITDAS

As for GFP 1-9 OPT (from UniProt P42212 1-197), the complementation signal relative to detection with GFP 1-10 OPT in experiment [1] was 0.2 and 0.25. This substance had a complementation rate in experiment [2] of 20 fold. Further, in experiment [3], the complementation efficiency relative to the C-terminal GFP S11 M3 + GFP 1-10 OPT format amounted to 0.033. In addition, in experiment [4], the tagged fragment concentration at which complementation fluorescence plateaus, with limiting 2.5 µM GFP 1-9 OPT is greater than 2.5 µM.
